Measured values as given in article PMC3744803, “A continuous fluorescence assay for the characterization of Nudix hydrolases” (Analytical Biochemistry, 2013).

How the values were obtained:
[1] = substrate: Nc1nc2c([nH]c(=O)n2[C@@H]2O[C@H](CO[P@@](=O)(O)O[P@@](=O)(O)OP(=O)(O)O)[C@@H](O)[C@H]2O)c(=O)[nH]1; assay: continuous fluorescence Pi-sensor (PBP-MDCC) assay; assay type: biochemical, Deinococcus radiodurans; conditions: pH 7.6, 37 °C, 10 mM Tris-HCl, 1 mM MgCl2, no coupling phosphatase
Text: (§1) continuous fluorescence Pi-sensor (PBP-MDCC) assay on DR_1025

[2] = substrate: Nc1nc2c([nH]c(=O)n2[C@H]2C[C@H](O)[C@@H](COP(=O)(O)OP(=O)(O)OP(=O)(O)O)O2)c(=O)[nH]1; assay: continuous fluorescence Pi-sensor (PBP-MDCC) assay; assay type: biochemical, Deinococcus radiodurans; conditions: pH 7.6, 37 °C, 10 mM Tris-HCl, 1 mM MgCl2, no coupling phosphatase
Text: as §1

[3] = substrate: Nc1nc2c(ncn2[C@@H]2O[C@H](COP(=O)(O)OP(=O)(O)O[C@H]3O[C@H](CO)[C@@H](O)[C@H](O)[C@@H]3O)[C@@H](O)[C@H]2O)c(=O)[nH]1; assay: discontinuous Fiske-SubbaRow (malachite green phosphate) assay; assay type: biochemical, Escherichia coli; conditions: pH 8.5, 37 °C, 1 mM MgCl2, APase coupling
Text: discontinuous Fiske-SubbaRow (malachite green phosphate) assay on NudD

[4] = substrate: Nc1nc2c([nH]c(=O)n2[C@@H]2O[C@H](CO[P@@](=O)(O)O[P@@](=O)(O)OP(=O)(O)O)[C@@H](O)[C@H]2O)c(=O)[nH]1; assay: continuous fluorescence Pi-sensor (PBP-MDCC) assay; assay type: biochemical, Escherichia coli; conditions: pH 7.6, 37 °C, 10 mM Tris-HCl, 1 mM MgCl2, PPase coupling
Text: (§2) continuous fluorescence Pi-sensor (PBP-MDCC) assay on MutT

[5] = substrate: Nc1nc2c([nH]c(=O)n2[C@H]2C[C@H](O)[C@@H](COP(=O)(O)OP(=O)(O)OP(=O)(O)O)O2)c(=O)[nH]1; assay: continuous fluorescence Pi-sensor (PBP-MDCC) assay; assay type: biochemical, Escherichia coli; conditions: pH 7.6, 37 °C, 10 mM Tris-HCl, 1 mM MgCl2, PPase coupling, alpha-beta cleavage
Text: as §2

[6] = substrate: Nc1nc2c([nH]c(=O)n2[C@H]2C[C@H](O)[C@@H](COP(=O)(O)OP(=O)(O)OP(=O)(O)O)O2)c(=O)[nH]1; assay: continuous fluorescence Pi-sensor (PBP-MDCC) assay; assay type: biochemical, Methanosarcina mazei; conditions: pH 7.6, 37 °C, 10 mM Tris-HCl, 1 mM MgCl2, PPase coupling
Text: (§3) continuous fluorescence Pi-sensor (PBP-MDCC) assay on MM_0920

[7] = substrate: Nc1ncnc2c1[nH]c(=O)n2[C@H]1C[C@H](O)[C@@H](COP(=O)(O)OP(=O)(O)OP(=O)(O)O)O1; assay: continuous fluorescence Pi-sensor (PBP-MDCC) assay; assay type: biochemical, Methanosarcina mazei; conditions: pH 7.6, 37 °C, 10 mM Tris-HCl, 1 mM MgCl2, PPase coupling
Text: as §3

B1: DR_1025 (Deinococcus radiodurans R1 = ATCC 13939 = DSM 20539) (protein)
chain: MEHDERTHVPVELRAAGVVLLNERGDILLVQEKGIPGHPEKAGLWHIPSGAVEDGENPQDAAVREACEETGLRVRPVKFLGAYLGRFPDGVLILRHVWLAEPEPGQTLAPAFTDEIAEASFVSREDFAQLYAAGQIRMYQTKLFYADALREKGFPALPV
- Km [1]: 22 ± 5 µM
- kcat [1]: 0.13 ± 0.01 s⁻¹
- Km [2]: 26 ± 1 µM
- kcat [2]: 0.18 ± 0.01 s⁻¹
- kcat/Km [2]: 4400 ± 100 M⁻¹ s⁻¹

B2: NudD (Escherichia coli K-12) (protein)
chain: MFLRQEDFATVVRSTPLVSLDFIVENSRGEFLLGKRTNRPAQGYWFVPGGRVQKDETLEAAFERLTMAELGLRLPITAGQFYGVWQHFYDDNFSGTDFTTHYVVLGFRFRVSEEELLLPDEQHDDYRWLTSDALLASDNVHANSRAYFLAEKRTGVPGL
- Km [3]: 220 ± 60 µM

B3: MutT (Escherichia coli K-12) (protein)
chain: MKKLQIAVGIIRNENNEIFITRRAADAHMANKLEFPGGKIEMGETPEQAVVRELQEEVGITPQHFSLFEKLEYEFPDRHITLWFWLVERWEGEPWGKEGQPGEWMSLVGLNADDFPPANEPVIAKLKRL
- Km [4]: 0.9 ± 0.2 µM
- kcat [4]: 11.2 ± 0.9 s⁻¹
- Km [5]: 0.28 ± 0.03 µM

B4: MM_0920 (Methanosarcina mazei Go1) (protein)
chain: MNLEKPYIISVYALIRNEKGEFLLLRRSENSRTNAGKWDLPGGKVNPDESLKEGVAREVWEETGITMVPGDIAGQVNFELTEKKVIAIVFDGGYVVADVKLSYEHIEYSWVSLEKILGMETLPAYFRDFFERFDRENKKPSKLFI
- Km [6]: 13 ± 3 µM
- kcat [6]: (1.9 ± 0.2) × 10^−3 s^−1
- Km [7]: 12 ± 3 µM
- kcat [7]: 0.00096 ± 8e-05 s⁻¹
- kcat/Km [7]: 78 ± 12 M⁻¹ s⁻¹
